Measured values reported in patent US20170275344A1, “POLYPEPTIDES AND USES THEREOF AS A DRUG FOR TREATMENT OF AUTOIMMUNE DISORDERS” (Compugen Ltd., priority 2014, published 2017).

Experiments:
[1] = test system: male DBA-1 mice; assay: Established collagen-induced arthritis (CIA), therapeutic regimen; type: in vivo, mouse
Method: Bovine type II collagen (CII) (RUNMC in house production, batch 03-04-08) at a concentration of 2 mg/ml in acetic acid 0.05M was emulsified in equal volumes of Freund's complete adjuvant (2 mg/ml of Mycobacterium tuberculosis strain H37Ra; Difco, Detroit, Mich.).
On day 0, 10-12 week old male DBA-1 mice (Janvier Elevage, France) (n=95) were immunized i.d. at the base of the tail with 100 μg of bovine CII. On day 21, mice received an intraperitoneal booster injection of 50 μg of CII dissolved in phosphate buffered saline (PBS), and the onset of arthritis occurred a few days after this booster.
Joint inflammation in each paw was scored visually, using a scale of 0-2 per paw with a maximal score of 8 per animal: 0=non inflamed, 1=mild inflammation, 1.5=marked inflammation, and 2=severe inflammation. Scoring was performed three times a week.
Treatment was started in established CIA early after onset of disease (i.e. therapeutic regimen), when the macroscopic scores per animal were between 0.25 and 1.25 (on a scale of 0-8). The i.p. injections were given three times per week for two weeks, after which the study was terminated and mice were terminally bled to collect serum. Thereafter, the knee and ankle joints were collected and stored in formalin. Histology was scored for inflammation and destruction on an arbitrary scale of 0-3, for five different parameters: • Joint inflammation • Cartilage proteoglycan (PG) depletion • Chondrocyte death • Cartilage erosion • Bone erosion
1. Negative control: PBS 2. Negative control mIgG2A (Bioxcell, BE0085): 10 mg/kg 3. C1ORF32 ECD-Fc (SEQ ID NO:42): 10 mg/kg 4. C1ORF32 ECD-Fc (SEQ ID NO:42): 5 mg/kg 5. Positive control: Enbrel (Wyeth, F01421) 5 mg/kg
Joints were fixed for at least 4 days in 4% formaldehyde, decalcified in 5% formic acid, and subsequently dehydrated and embedded in paraffin. Standard frontal sections of 7 μm were mounted on SuperFrost slides (Menzel-Glaser, Braunschweig, Germany). Haematoxylin and eosin (H&E) staining was performed to study joint inflammation. The severity of inflammation in the joints was scored on a scale of 0-3 (0=no cells, 1=mild cellularity, 2=moderate cellularity, and 3=maximal cellularity). To study proteoglycan (PG) depletion from the cartilage matrix, sections were stained with safranin O (SO) followed by counterstaining with fast green. Depletion of PG was determined using an arbitrary scale of 0-3, ranging from normal, fully stained cartilage to destained cartilage, fully depleted of PGs. Chondrocyte death was scored on a scale of 0-3 ranging from no loss of chondrocyte nuclei to complete empty cartilage surface. The degree of cartilage surface erosion was scored on a scale of 0-3, ranging from no damage to complete loss of articular cartilage. Bone destruction was graded separately on a scale of 0-3, ranging from no damage to the complete loss of bone structure. Histopathological changes in the joint were scored on three semiserial sections of the joint spaced 70 μm apart. Scoring was performed in a blindfolded manner.
Statistical analysis: Disease course data was analyzed using one-way ANOVA with repeated measures, with a Bonferroni's post-test of selected pairs to determine statistical differences between C1ORF32 ECD-Fc (SEQ ID NO:42) and Enbrel treated mice, each as compared to Control Ig (IgG2a) treated group.

[2] = test system: Male DBA/1O1aHsd mice; assay: CIA model, early stage treatment from day 18; type: in vivo, mouse
From the text: The aim of this study was to estimate the effect of C1ORF32-P8-V1-ECD-mFc (SEQ ID NO:42) on disease development in a type II Collagen induced arthritis (CIA) mouse model upon administration at early stage of disease; i.e., when specific and predictive markers for RA development are present in the serum, but before onset of clinical symptoms.
In the CIA model, arthritis is induced by immunization with type II collagen in CFA on day 1 which is followed by boosting with type II collagen in CFA on day 21. Antibodies against both CII and cyclic citrullinated peptide (CCPs) appear early after immunization, before joint swelling is observed.
To evaluate the effect of early stage treatment with C1ORF32-P8-V1-ECD-mFc (SEQ ID NO:42) on disease development treatment started on day 18 and was given IP injection, Q2D to mice from day 18 until day 32.
Male DBA/1O1aHsd mice weighing 16-25 grams (mean 22 g) on day 18 of the study were obtained from Harlan, Inc., Indianapolis, Ind. Mice (10/group) were anaesthetized with Isoflurane, shaved at the base of the tail, and injected intradermally with 150 μl of Freund's Complete Adjuvant (Sigma) containing bovine type II collagen (Elastin Products, Owensville, Mo.) (2 mg/me at the base of the tail on day 0 and again on day 21. On study day 18, mice were randomized by body weight into treatment groups. Treatment was initiated after enrollment and continued every other day (Q2D at 48 h intervals) through study day 33. On study days 23-34, onset of arthritis occurred. Mice were terminated on study day 34. Clinical scores were given for each of the paws (right front, left front, right rear, left rear) on arthritis days 18-34.
Mice were weighed on study days 18, 20, 22, 24, 26, 28, 30, 32 and 34 (prior to necropsy). […]

B1: C1ORF32 ECD-Fc (SEQ ID NO:42): fusion protein of human C1ORF32 ECD fused to mouse immunoglobulin Fc (human-mouse fusion protein) (protein)
chain: LQVTVPDKKKVAMLFQPTVLRCHFSTSSHQPAVVQWKFKSYCQDRMGESLGMSSTRAQSLSKRNLEWDPYLDCLDSRRTVRVVASKQGSTVTLGDFYRGREITIVHDADLQIGKLMWGDSGLYYCIITTPDDLEGKNEDSVELLVLGRTGLLADLLPSFAVEIMGSENLYFQGSGEPRGPTIKPCPPCKCPAPNLLGGPSVFIFPPKIKDVLMISLSPIVTCVVVDVSEDDPDVQISWFVNNVEVHTAQTQTHREDYNSTLRVVSALPIQHQDWMSGKEFKCKVNNKDLPAPIERTISKPKGSVRAPQVYVLPPPEEEMTKKQVTLTCMVTDFMPEDIYVEWTNNGKTELNYKNTEPVLDSDGSYFMYSKLRVEKKNWVERNSYSCSVVHEGLHNHHTTKSFSRTPGK
modifications: Fusion protein human C1ORF32-ECD fused to mouse IgG2a Fc
In the case of B1, the “clinical (macroscopic) scores of arthritis” value ([1]; 5 mg/kg i.p. 3x/wk for 2 wks) is reported as “did not demonstrate any effect”, the “clinical (macroscopic) scores of arthritis” value ([1]; 10 mg/kg i.p. 3x/wk for 2 wks, p<0.001 vs mIgG2a) is reported as “significantly reduced the clinical scores of arthritis” and the “histological arthritis pathology of ankle joints” value ([1]; 10 mg/kg, after two weeks of therapy, did not reach statistical significance) is reported as “trend of reduced arthritis pathology”. For the same molecule, the “results over three CIA studies” value ([1]; three studies) was “excellent results in two studies and weak results in one study”, the “effect of the lower dose” value ([2]; 3.3 mg/kg IP Q2D) was “No effect” and the clinical arthritis score ([2]; 10 mg/kg IP Q2D from day 18, vs PBS or mIgG2a, did not reach significance) was “inhibition of clinical arthritis score”. The “body weight loss (percent change from baseline)” value ([2]; 10 mg/kg, from study day 30 until termination, data not shown) was “significantly inhibited toward normal”.
